From patent publication US8343490B2, “Monoclonal antibody SC104 and derivative thereof specifically binding to a sialyltetraosyl carbohydrate as a potential anti-tumor therapeutic agent” (Cephalon Australia Pty Ltd, priority 2004, dated 2013)

Columns and labels:
C170 cells = assay: C170 cell ELISA (hybridoma screening); format: binding
Description: (§1) ELISA. Antibody responses in the serum of immunised mice were assayed by titration using a standard non-competitive ELISA procedure. 96-well tissue culture plates were coated with C170 cells at a cell density of 5×10^5 cells/ml (100 μl/well) in 10% foetal bovine serum in RPMI 1640. The plates were incubated overnight at 37° C., 5% CO2, 95% air. The cells were then washed twice in phosphate buffered saline (pH7.3, PBS) prior to being fixed with 0.5% glutaraldehyde in PBS (10 min, 25° C., 100 μl/well). Remaining non-specific binding sites were blocked by incubation for 1 hr with 1% bovine serum albumin (fraction V from Sigma Chemicals Ltd.) in PBS. The cells were washed three times with a washing solution consisting of 0.05% Tween 20 in phosphate buffered saline before assaying post-boost serum for binding to C170 cells using a non-competitive sandwich ELISA. The pre-immunisation serum was used as a negative control. • Immunohistochemistry. Binding of hybridoma supernatants to tumour tissues was determined by indirect immunoperoxidase staining of frozen colorectal tumour sections. […] The bound antibody was detected with rabbit anti-mouse Ig conjugated to peroxidase (Dako Ltd., Bucks., UK) and following extensive washing the slides were stained with 0.05% diaminobenzidine and 0.01% H2O2 in 0.05M Tris-HCl, pH7.6 and counterstained with haematoxylin. […]

[1] = test system: colorectal tumour sections; assay: Immunoperoxidase staining of frozen colorectal tumour sections (screening); format: binding; design: key: −: negative; +: minimal; 2+: strong; 3+: very strong
Description: as §1

CEA = biological target: T1, CEA (Homo sapiens, UniProt P06731); assay: ELISA on purified CEA; format: binding; conditions: FIG. 4
T1 construct: from tissue
T1 sequence (P06731 35-676): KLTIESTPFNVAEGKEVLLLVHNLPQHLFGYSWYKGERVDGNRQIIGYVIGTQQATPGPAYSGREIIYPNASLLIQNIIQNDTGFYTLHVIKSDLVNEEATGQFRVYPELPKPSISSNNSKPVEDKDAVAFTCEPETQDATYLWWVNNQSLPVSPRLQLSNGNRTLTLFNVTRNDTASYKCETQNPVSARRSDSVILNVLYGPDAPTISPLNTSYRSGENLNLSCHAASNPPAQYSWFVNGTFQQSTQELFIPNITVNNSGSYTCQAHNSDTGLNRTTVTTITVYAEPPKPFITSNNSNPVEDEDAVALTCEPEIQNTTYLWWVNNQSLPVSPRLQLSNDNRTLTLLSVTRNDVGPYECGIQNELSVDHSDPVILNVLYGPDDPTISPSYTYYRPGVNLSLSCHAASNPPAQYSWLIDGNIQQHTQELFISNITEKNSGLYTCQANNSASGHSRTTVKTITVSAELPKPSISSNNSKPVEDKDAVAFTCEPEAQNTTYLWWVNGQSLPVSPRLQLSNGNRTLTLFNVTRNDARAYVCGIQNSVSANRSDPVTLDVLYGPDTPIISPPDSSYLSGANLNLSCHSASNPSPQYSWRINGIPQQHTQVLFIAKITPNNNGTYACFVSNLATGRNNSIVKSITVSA
Description: • Binding to purified antigen preparations. […] Binding of SC104 mab was assayed by ELISA as described above.

C146 = assay: Inhibition of cell growth, MTS; format: cell-based; conditions: 30 μg/ml
Description: (§2) Inhibition of cell growth. 1×10^3 colorectal C170, C168, C146, CaCO2, Colo205, LoVo and HT29 cells were aliquoted into individual wells of a flat bottomed 96-well plate and left to adhere overnight at 37° C. The following day the cells were treated with: 10, 3, 1, 0.3 and 0 μg/ml of SC104 mab. As a negative control 791T/36 at concentrations 100, 30, 10, 3 and 0 μg/ml, was titrated against each concentration of drug used. Triplicate wells were used. Cells were left for 5 days at 37° C. prior to the addition of MTS reagent to each well and optical density reading at 490 nm.

C168 = assay: Inhibition of cell growth, MTS; format: cell-based; conditions: 30 μg/ml
Description: as §2

C170 = assay: Inhibition of cell growth, MTS; format: cell-based
Description: as §2

CaCO2 = assay: Inhibition of cell growth, MTS; format: cell-based; conditions: 30 μg/ml
Description: as §2

Colo205 = assay: Inhibition of cell growth, MTS; format: cell-based
Description: as §2

HT-29 = assay: Inhibition of cell growth, MTS; format: cell-based; conditions: 30 μg/ml
Description: as §2

SC104 / C14 antigen = assay: ELISA for homophilic binding; conditions: FIG. 23
Description: ELISA for homophilic binding. Flat flexi 96 well ELISA plates were coated with anti-mouse IgG Fc specific antibody or were coated with 3 μg/ml (100 μl/well) of C14 antigen in PBS and dried down overnight. Plates were washed 3 times with PBS prior to blocking with PBS/1% BSA for 1 hr at room temperature. SC104 antibody (0-100 μg/ml) was added on ice for 1 hr. After washing the plate 3 times in PBS/0.05% tween-20, biotinylated SC104 was added and incubated on ice for 30 minutes. Following a further 3 washes in PBS 0.05% tween-20 anti-mouse SA-HRP (1/1000; Dako, High Wycombe, UK) or goat anti-mouse Fc (1/1000: Dako, High Wycombe, UK) was added as appropriate and left on ice for 30 min. Plates were washed 5 times in PBS/0.05% tween-20 before adding 100 μl/well of TMB substrate and reading at 570 nm.

[2] = concentrations in excess of 10 μg/ml, FIG. 20

B1: SC104: mouse IgG1 monoclonal antibody specific for a sialyltetraosyl carbohydrate, raised by immunisation with colorectal cancer cell lines (antibody, V domains shown)
VH: DVQLQESGPDLVKPSQSLSLTCTVTGYSITSGYSWHWVRQFPGNKMEWMGHIHFSGRPTYNPSLSSRISITRDTSKNQFLLQLKFVTTEDTSTYFCARKGKGSDDGLNYWGQGISVTVSS
VL: ENVLTQSPVIMSASPGEKVTMTCSASSSLSYIHWYQQKSRTSPKLWIYDTSNLASGVPGRFSGSGSGNSYSLTISSMEAEDVATYYCFQGSEYPLTFGGGTKLEMT
C170 cells
  C170 ELISA (OD 405 nm): 0.301 OD 405 nm
[1]
  Immunohistochemistry Colorectal Tumour: 3+
CEA
  staining of CEA by ELISA: No significant staining
C146
  % inhibition of cell growth as measured by MTS staining: 65%
C168
  % inhibition of cell growth as measured by MTS staining: 55%
C170; 30 μg/ml
  % inhibition of cell growth as measured by MTS staining: 70%
C170; [2]
  inhibition of growth of adherent cells (MTS): inhibited growth
CaCO2
  % inhibition of cell growth as measured by MTS staining: 20%
Colo205; 30 μg/ml
  % inhibition of cell growth as measured by MTS staining: 55%
Colo205; [2]
  inhibition of growth of adherent cells (MTS): inhibited growth
HT-29
  % inhibition of cell growth as measured by MTS staining: 5%
SC104 / C14 antigen; C14 antigen coated plates
  binding to plates coated with purified glycoprotein expressing SC104 haptens: bound stoichiometrically until 10 μg/ml and then bound exponentially beyond this concentration
SC104 / C14 antigen; plate coated with unlabelled SC104, SC104 biotin detected
  homophilic binding in the absence of antigen: did not bind to itself
